From US5962634A, “IgE antagonists” (Thomas Jefferson University, priority 1997, dated 1999) come the findings set out here.

Bridges are numbered along the chain shown (N, C = ends). Where no end group is shown, it is not given here. [ ]: non-standard residue; d: D form.

In general, IC50 refers to the concentration that gives 50% inhibition. A lower IC50 goes with greater potency in that assay.

The target of one experiment is FcεR1α (Homo sapiens). In words: Surface plasmon resonance (BIAcore biosensor) inhibition of IgE-Fc binding to immobilized soluble FcεR1α. Conditions: peptide 2.5 mM; IgE-Fc 5 nM, association monitored for 6 minutes, 24° C. As for the experimental part: The kinetics of binding of IgE Fc to soluble FcεR1α were determined using a BIAcore biosensor (Pharmacia Biosensor AB, Uppsala, Sweden). The FcεR1α was immobilized via primary amine groups to a carboxymethylated dextran-coated CM5 sensor chip, at a concentration of 85 μg/ml in 10mM sodium acetate buffer pH 4.5, using N-hydroxy-succinimide and N-ethyl-N'-(3-[…])-carbodiimide.Free sites were blocked with 1M ethanolamine-hydrochloride pH 8.5.
The association of IgE-Fc at a concentration of 5nM was monitored for 6 minutes in the presence and absence of a derivative of the D amino acid peptide #1 at various concentrations (at 24° C.) The derivative of D amino acid peptide #1 is identical to D amino acid #1, which is described in Example 3, except it is biotinylated.

For another experiment, the target named is labelled myeloma IgE. In words: competition: peptide titrated against 5 nM iodinated myeloma IgE binding to transfected CHO cells, gamma counting.

Chain of FcεR1α (Homo sapiens) (P01854 104-428 isoform P01854-1 limits assumed): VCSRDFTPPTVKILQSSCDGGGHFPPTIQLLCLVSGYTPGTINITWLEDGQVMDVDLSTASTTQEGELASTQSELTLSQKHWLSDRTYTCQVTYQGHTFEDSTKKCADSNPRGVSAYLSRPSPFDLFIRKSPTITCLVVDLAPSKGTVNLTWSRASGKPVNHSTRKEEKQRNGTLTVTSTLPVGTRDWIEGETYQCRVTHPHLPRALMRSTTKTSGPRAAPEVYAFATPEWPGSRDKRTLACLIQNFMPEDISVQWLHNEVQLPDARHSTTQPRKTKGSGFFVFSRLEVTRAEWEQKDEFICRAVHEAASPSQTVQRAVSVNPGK

For “derivative of D amino acid peptide #1: identical to D amino acid peptide #1, which is described in Example 3, except it is biotinylated (CIYYKDGEALKY[dC]; disulfide 1-13; also: biotinylated (site not given here))”, the “inhibition of IgE-Fc binding” value with FcεR1α (Homo sapiens) is given as “virtually complete inhibition”.
CIYYKDGEALKY[dC] (disulfide 1-13) [D amino acid peptide #1] showed an IC50 with labelled myeloma IgE of 5.14 µM.
